Results on 55 substances are retold here after patent US10745460B2, “Peptides and combination of peptides for use in immunotherapy against various tumors” (Immatics Biotechnologies GmbH, priority 2015, dated 2020).

The target of this test is HLA-A*02:01 (Homo sapiens, UniProt P04439, D140Y/D185E/D98H/E176V/E277Q/G131W/G231S/I119V/I121R/I166T/I218V/L300P/L318F/N151K/N90K/P208A/P217A/Q86G/Q94H/R138H/R169H/T345S). The test is described as follows: MHC binding assay: UV-ligand exchange with β2m ELISA (peptide exchange yield). To be noted: binding to HLA-A*02:01 evaluated by peptide exchange yield (UV-ligand exchange, β2m ELISA). The text has this: Candidate peptides for T cell based therapies according to the present invention were further tested for their MHC binding capacity (affinity). The individual peptide-MHC complexes were produced by UV-ligand exchange, where a UV-sensitive peptide is cleaved upon UV-irradiation, and exchanged with the peptide of interest as analyzed. Only peptide candidates that can effectively bind and stabilize the peptide-receptive MHC molecules prevent dissociation of the MHC complexes. To determine the yield of the exchange reaction, an ELISA was performed based on the detection of the light chain (β2m) of stabilized MHC complexes. The assay was performed as generally described in Rodenko et al. (Rodenko et al., 2006).
96 well MAXISorp plates (NUNC) were coated over night with 2 ug/ml streptavidin in PBS at room temperature, washed 4× and blocked for 1 h at 37° C. in 2% BSA containing blocking buffer. Refolded HLA-A*02:01/MLA-001 monomers served as standards, covering the range of 15-500 ng/ml. Peptide-MHC monomers of the UV-exchange reaction were diluted 100 fold in blocking buffer. Samples were incubated for 1 h at 37° C., washed four times, incubated with 2 ug/ml HRP conjugated anti-β2m for 1 h at 37° C., washed again and detected with TMB solution that is stopped with […]. Absorption was measured at 450 nm. Candidate peptides that show a high exchange yield (preferably higher than 50%, most preferred higher than 75%) are generally preferred for a generation and production of antibodies or fragments thereof, and/or T cell receptors or fragments thereof, as they show sufficient avidity to the MHC molecules and prevent dissociation of the MHC complexes.
Background: In an ELISA, binding on a coated surface is turned into a signal by an enzyme label.
Consider “1 (KLQEKIQEL; listed as Homo sapiens) [compound 1]”, for which the Peptide exchange entry is reported as “++++ (≥75% = ++++)”.

For “3 (RVIDDSLVVGV; listed as Homo sapiens) [compound 3]”, the Peptide exchange entry is “+++ (≥50 = +++)”.

For the substance “4 (VLFGELPAL; listed as Homo sapiens) [compound 4]”, the Peptide exchange entry is recorded as “+++ (≥50 = +++)”.

Turning to “5 (GLVDIMVHL; listed as Homo sapiens) [compound 5]”, the Peptide exchange entry was “+++ (≥50 = +++)”.

As to “6 (FLNAIETAL; listed as Homo sapiens) [compound 6]”, the Peptide exchange result is “++++ (≥75% = ++++)”.

In the case of “7 (ALLQALMEL; listed as Homo sapiens) [compound 7]”, the Peptide exchange result is “+++ (≥50 = +++)”.

In the case of “9 (SLITGQDLLSV; listed as Homo sapiens) [compound 9]”, the Peptide exchange entry is “+++ (≥50 = +++)”.

As for “10 (QLIEKNWLL; listed as Homo sapiens) [compound 10]”, the Peptide exchange entry is on record as “+++ (≥50 = +++)”.

“11 (LLDPKTIFL; listed as Homo sapiens) [compound 11]”: the Peptide exchange result is “+++ (≥50 = +++)”.

On to “12 (RLLDPKTIFL; listed as Homo sapiens) [compound 12]”, for which the Peptide exchange result was “+++ (≥50 = +++)”.

Consider “13 (RLHDENILL; listed as Homo sapiens) [compound 13]”, for which the Peptide exchange entry is “+++ (≥50 = +++)”.

As for “14 (YTFSGDVQL; listed as Homo sapiens) [compound 14]”, the Peptide exchange result was “+++ (≥50 = +++)”.

Regarding “16 (SLADLSLLL; listed as Homo sapiens) [compound 16]”, the Peptide exchange entry is recorded as “+++ (≥50 = +++)”.

As to “17 (GLLPSAESIKL; listed as Homo sapiens) [compound 17]”, the Peptide exchange entry was “++++ (≥75% = ++++)”.

Consider “18 (KTASINQNV; listed as Homo sapiens) [compound 18]”, for which the Peptide exchange result is “++ (≥20% = ++)”.

In the case of “19 (KVFELDLVTL; listed as Homo sapiens) [compound 19]”, the Peptide exchange entry is on record as “++ (≥20% = ++)”.

With “20 (ALVEKGEFAL; listed as Homo sapiens) [compound 20]”, the Peptide exchange entry is given as “++ (≥20% = ++)”.

For “21 (YLMDDFSSL; listed as Homo sapiens) [compound 21]”, the Peptide exchange entry is “+++ (≥50 = +++)”.

With “22 (LMYPYIYHV; listed as Homo sapiens) [compound 22]”, the Peptide exchange result is “+++ (≥50 = +++)”.

For the substance “23 (ALLSPLSLA; listed as Homo sapiens) [compound 23]”, the Peptide exchange entry was “+++ (≥50 = +++)”.

“24 (KVWSDVTPL; listed as Homo sapiens) [compound 24]”: the Peptide exchange result is reported as “+++ (≥50 = +++)”.

With “25 (LLWGHPRVALA; listed as Homo sapiens) [compound 25]”, the Peptide exchange entry is recorded as “+++ (≥50 = +++)”.

Take “26 (VLDGKVAVV; listed as Homo sapiens) [compound 26]”: the Peptide exchange result was “+++ (≥50 = +++)”.

Consider “27 (GLLGKVTSV; listed as Homo sapiens) [compound 27]”, for which the Peptide exchange result is given as “+++ (≥50 = +++)”.

As to “28 (IKVTDPQLLEL; listed as Homo sapiens) [compound 28]”, the Peptide exchange entry is recorded as “++ (≥20% = ++)”.

As for “29 (KMISAIPTL; listed as Homo sapiens) [compound 29]”, the Peptide exchange entry is on record as “++ (≥20% = ++)”.

In the case of “30 (IITEVITRL; listed as Homo sapiens) [compound 30]”, the Peptide exchange entry is “+++ (≥50 = +++)”.

As for “31 (GLLETTGLLAT; listed as Homo sapiens) [compound 31]”, the Peptide exchange entry is recorded as “+++ (≥50 = +++)”.

For the substance “33 (TLDRNSLYV; listed as Homo sapiens) [compound 33]”, the Peptide exchange entry is “++ (≥20% = ++)”.

As for “34 (TLNTLDINL; listed as Homo sapiens) [compound 34]”, the Peptide exchange entry is “+++ (≥50 = +++)”.

Turning to “35 (VIIKGLEEI; listed as Homo sapiens) [compound 35]”, the Peptide exchange entry is “++ (≥20% = ++)”.

“36 (TVLQELINV; listed as Homo sapiens) [compound 36]”: the Peptide exchange result is “+++ (≥50 = +++)”.

As for “37 (QIVELIEKI; listed as Homo sapiens) [compound 37]”, the Peptide exchange result is recorded as “++ (≥20% = ++)”.

In the case of “38 (VLQQESNFL; listed as Homo sapiens) [compound 38]”, the Peptide exchange result is recorded as “++ (≥20% = ++)”.

Regarding “39 (YLEDGFAYV; listed as Homo sapiens) [compound 39]”, the Peptide exchange entry is “+++ (≥50 = +++)”.

As to “40 (KIWEELSVLEV; listed as Homo sapiens) [compound 40]”, the Peptide exchange result is listed as “+++ (≥50 = +++)”.

Take “41 (IVTEIISEI; listed as Homo sapiens) [compound 41]”: the Peptide exchange entry is “+++ (≥50 = +++)”.

Regarding “42 (KQMSISTGL; listed as Homo sapiens) [compound 42]”, the Peptide exchange result is on record as “++ (≥20% = ++)”.

For “44 (AVFNLVHVV; listed as Homo sapiens) [compound 44]”, the Peptide exchange result is “+++ (≥50 = +++)”.

Turning to “45 (FLPVSVVYV; listed as Homo sapiens) [compound 45]”, the Peptide exchange result is reported as “+++ (≥50 = +++)”.

Turning to “47 (GLNGFNVLL; listed as Homo sapiens) [compound 47]”, the Peptide exchange result is “+++ (≥50 = +++)”.

With “48 (KISDFGLATV; listed as Homo sapiens) [compound 48]”, the Peptide exchange entry was “+++ (≥50 = +++)”.

Take “49 (KLIGNIHGNEV; listed as Homo sapiens) [compound 49]”: the Peptide exchange result is reported as “++ (≥20% = ++)”.

With “50 (ILLSVLHQL; listed as Homo sapiens) [compound 50]”, the Peptide exchange result was “+++ (≥50 = +++)”.

For the substance “51 (LDSEALLTL; listed as Homo sapiens) [compound 51]”, the Peptide exchange result is “++ (≥20% = ++)”.

“52 (TIGIPFPNV; listed as Homo sapiens) [compound 52]”: the Peptide exchange result was “++ (≥20% = ++)”.

On to “53 (AQHLSTLLL; listed as Homo sapiens) [compound 53]”, for which the Peptide exchange entry was “+ (≥10% = +)”.

With “54 (YLVPGLVAA; listed as Homo sapiens) [compound 54]”, the Peptide exchange result is recorded as “+++ (≥50 = +++)”.

Regarding “55 (HLFDKIIKI; listed as Homo sapiens) [compound 55]”, the Peptide exchange entry was “+++ (≥50 = +++)”.

Take “57 (TLYPGRFDYV; listed as Homo sapiens) [compound 57]”: the Peptide exchange result is given as “++ (≥20% = ++)”.

For “58 (HLLGEGAFAQV; listed as Homo sapiens) [compound 58]”, the Peptide exchange result is listed as “+++ (≥50 = +++)”.

Regarding “59 (ALADGIKSFLL; listed as Homo sapiens) [compound 59]”, the Peptide exchange entry is listed as “+++ (≥50 = +++)”.

Consider “60 (YLFSQGLQGL; listed as Homo sapiens) [compound 60]”, for which the Peptide exchange result is “+++ (≥50 = +++)”.

“61 (ALYPKEITL; listed as Homo sapiens) [compound 61]”: the Peptide exchange entry is recorded as “+++ (≥50 = +++)”.

On to “62 (SLVENIHVL; listed as Homo sapiens) [compound 62]”, for which the Peptide exchange result was “+++ (≥50 = +++)”.
